Publication PMC4797271, “The quorum-sensing regulator ComA from Bacillus subtilis activates transcription using topologically distinct DNA motifs”

T1: ComA (Bacillus subtilis, UniProt P14204 1-214)
T1 sequence: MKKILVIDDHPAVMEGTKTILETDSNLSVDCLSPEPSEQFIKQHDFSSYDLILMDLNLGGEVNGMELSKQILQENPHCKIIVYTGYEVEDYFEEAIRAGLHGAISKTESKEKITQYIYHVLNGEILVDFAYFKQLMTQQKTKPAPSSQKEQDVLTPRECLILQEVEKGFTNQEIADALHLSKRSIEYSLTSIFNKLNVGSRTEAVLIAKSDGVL

T2: ComA;RNA polymerase alpha subunit (Bacillus subtilis;Bacillus subtilis, UniProt P14204;P20429 1-214;1-314, |)
T2 sequence 1: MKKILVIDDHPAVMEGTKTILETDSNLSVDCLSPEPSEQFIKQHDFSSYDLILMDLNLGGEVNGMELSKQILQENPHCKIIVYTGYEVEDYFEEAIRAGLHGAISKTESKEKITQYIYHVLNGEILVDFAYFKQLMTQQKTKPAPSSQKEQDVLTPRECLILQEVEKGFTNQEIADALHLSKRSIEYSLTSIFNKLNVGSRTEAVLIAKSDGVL
T2 sequence 2: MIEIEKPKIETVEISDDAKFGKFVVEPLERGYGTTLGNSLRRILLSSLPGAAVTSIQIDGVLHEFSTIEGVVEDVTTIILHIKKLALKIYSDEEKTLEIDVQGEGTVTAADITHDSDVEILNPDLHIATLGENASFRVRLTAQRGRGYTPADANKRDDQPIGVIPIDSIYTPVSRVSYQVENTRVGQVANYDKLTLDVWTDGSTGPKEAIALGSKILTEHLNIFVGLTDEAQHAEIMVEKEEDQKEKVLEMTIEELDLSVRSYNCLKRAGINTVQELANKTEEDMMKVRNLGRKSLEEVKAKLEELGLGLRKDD

B1: PDR (perfect direct repeat) (dsDNA)
DNA 1: AAACTGGAATCGAAACTTTGCGGCCATTTTGCGGTGATAAAAACATTTTT
DNA 2: AAAAATGTTTTTATCACCGCAAAATGGCCGCAAAGTTTCGATTCCAGTTT
B2: Ppel DR2 only (dsDNA)
DNA 1: CGGCCGGTTTTTTTTTTTGCGGTCTTTGCGGTGGGAGTCTTTAGAAT
DNA 2: ATTCTAAAGACTCCCACCGCAAAGACCGCAAAAAAAAAAACCGGCCG
B3: PDR n9 (dsDNA)
DNA 1: AAACTGGAATCGAAACTTTGCGGCCATTACCATTGCGGTGATAAAAACATTTTT
DNA 2: AAAAATGTTTTTATCACCGCAATGGTAATGGCCGCAAAGTTTCGATTCCAGTTT
B4: PDR n3 (dsDNA)
DNA 1: AAACTGGAATCGAAACTTTGCGGCCATTGCGGTGATAAAAACATTTTT
DNA 2: AAAAATGTTTTTATCACCGCAATGGCCGCAAAGTTTCGATTCCAGTTT
B5: PDR n15 (dsDNA)
DNA 1: AAACTGGAATCGAAACTTTGCGGCCATTACCATCTACTTTGCGGTGATAAAAACATTTTT
DNA 2: AAAAATGTTTTTATCACCGCAAAGTAGATGGTAATGGCCGCAAAGTTTCGATTCCAGTTT
B6: PIR n10 (dsDNA)
DNA 1: ATGTTTAGTGGAAATGATTGCGGCATCTCCACACCGCAAAAAATATTGCTGTAAAT
DNA 2: ATTTACAGCAATATTTTTTGCGGTGTGGAGATGCCGCAATCATTTCCACTAAACAT
B7: PIR n2 (dsDNA)
DNA 1: ATGTTTAGTGGAAATGATTGCGGCACCGCAAAAAATATTGCTGTAAAT
DNA 2: ATTTACAGCAATATTTTTTGCGGTGCCGCAATCATTTCCACTAAACAT
B8: PIR n1 (dsDNA)
DNA 1: ATGTTTAGTGGAAATGATTGCGGCCCGCAAAAAATATTGCTGTAAAT
DNA 2: ATTTACAGCAATATTTTTTGCGGGCCGCAATCATTTCCACTAAACAT
B9: PIR n14 (dsDNA)
DNA 1: ATGTTTAGTGGAAATGATTGCGGCATCTCCACATACCCCGCAAAAAATATTGCTGTAAAT
DNA 2: ATTTACAGCAATATTTTTTGCGGGGTATGTGGAGATGCCGCAATCATTTCCACTAAACAT
B10: PDR n7 (dsDNA)
DNA 1: AAACTGGAATCGAAACTTTGCGGCCATTACTTGCGGTGATAAAAACATTTTT
DNA 2: AAAAATGTTTTTATCACCGCAAGTAATGGCCGCAAAGTTTCGATTCCAGTTT
B11: PIR n8 (dsDNA)
DNA 1: ATGTTTAGTGGAAATGATTGCGGCATCTCCACCGCAAAAAATATTGCTGTAAAT
DNA 2: ATTTACAGCAATATTTTTTGCGGTGGAGATGCCGCAATCATTTCCACTAAACAT
B12: PIR n3 (dsDNA)
DNA 1: ATGTTTAGTGGAAATGATTGCGGCATCCGCAAAAAATATTGCTGTAAAT
DNA 2: ATTTACAGCAATATTTTTTGCGGATGCCGCAATCATTTCCACTAAACAT
B13: Ppel DR3 only (dsDNA)
DNA 1: CGGCCGGTTTTTTTTTGGCTGTTCTTTGCGGTGGGATTTTGCAGAAT
DNA 2: ATTCTGCAAAATCCCACCGCAAAGAACAGCCAAAAAAAAACCGGCCG
B14: Ppel IR-DR core (dsDNA)
DNA 1: GGATTTTGCAGAATGCCGCAATAGGATAGCGGAACATTTTCGGTTCTG
DNA 2: CAGAACCGAAAATGTTCCGCTATCCTATTGCGGCATTCTGCAAAATCC
B15: PDR n2 (dsDNA)
DNA 1: AAACTGGAATCGAAACTTTGCGGCCTTGCGGTGATAAAAACATTTTT
DNA 2: AAAAATGTTTTTATCACCGCAAGGCCGCAAAGTTTCGATTCCAGTTT
B16: PIR n6 (dsDNA)
DNA 1: ATGTTTAGTGGAAATGATTGCGGCATCTCCCGCAAAAAATATTGCTGTAAAT
DNA 2: ATTTACAGCAATATTTTTTGCGGGAGATGCCGCAATCATTTCCACTAAACAT
B17: Ppel DR1 only (dsDNA)
DNA 1: CGGCCTTTTGGTTTTTTTGCGGTCTGGCTGTTGGGAGTCTTTAGAAT
DNA 2: ATTCTAAAGACTCCCAACAGCCAGACCGCAAAAAAACCAAAAGGCCG
B18: PDR n10 (dsDNA)
DNA 1: AAACTGGAATCGAAACTTTGCGGCCATTACCATTTGCGGTGATAAAAACATTTTT
DNA 2: AAAAATGTTTTTATCACCGCAAATGGTAATGGCCGCAAAGTTTCGATTCCAGTTT
B19: PDR n1 (dsDNA)
DNA 1: AAACTGGAATCGAAACTTTGCGGCTTGCGGTGATAAAAACATTTTT
DNA 2: AAAAATGTTTTTATCACCGCAAGCCGCAAAGTTTCGATTCCAGTTT
B20: PIR (perfect inverted repeat) (dsDNA)
DNA 1: ATGTTTAGTGGAAATGATTGCGGCATCCCGCAAAAAATATTGCTGTAAAT
DNA 2: ATTTACAGCAATATTTTTTGCGGGATGCCGCAATCATTTCCACTAAACAT
B21: PDR G3T (dsDNA)
DNA 1: AAACTGGAATCGAAACTTTGCGGCCATTTTTCGGTGATAAAAACATTTTT
DNA 2: AAAAATGTTTTTATCACCGAAAAATGGCCGCAAAGTTTCGATTCCAGTTT
B22: PIR C4A (dsDNA)
DNA 1: ATGTTTAGTGGAAATGATTGCGGCATCCCGAAAAAAATATTGCTGTAAAT
DNA 2: ATTTACAGCAATATTTTTTTCGGGATGCCGCAATCATTTCCACTAAACAT
B23: PDR ex7 (RE4 T1C) (dsDNA)
DNA 1: AAACTGGAATCGAAACTTTGCGGCCATTCTGCGGTGATAAAAACATTTTT
DNA 2: AAAAATGTTTTTATCACCGCAGAATGGCCGCAAAGTTTCGATTCCAGTTT

These binders were tested against T3, ComA;sigma factor sigmaA (Bacillus subtilis;Bacillus subtilis, UniProt P14204;P06224 1-214;1-371, |) (assay: EMSA; supershift, lower mobility than PIR; EMSA: 10 mM HEPES pH 7.6, 2 mM MgCl2, 0.1 mM EDTA, 200 mM KCl, 5 mM DTT, 10% glycerol; 10 ng DNA in 15 ul, 20 min, room temperature). Details: protein: recombinant;recombinant; tags: N-terminal His6 (from expression primer);N-terminal His6 (from expression primer); chain copies: 2;1; label: 5' biotin on strand 1; blunt.
T3 sequence (P06224 whole entry, one chain of several): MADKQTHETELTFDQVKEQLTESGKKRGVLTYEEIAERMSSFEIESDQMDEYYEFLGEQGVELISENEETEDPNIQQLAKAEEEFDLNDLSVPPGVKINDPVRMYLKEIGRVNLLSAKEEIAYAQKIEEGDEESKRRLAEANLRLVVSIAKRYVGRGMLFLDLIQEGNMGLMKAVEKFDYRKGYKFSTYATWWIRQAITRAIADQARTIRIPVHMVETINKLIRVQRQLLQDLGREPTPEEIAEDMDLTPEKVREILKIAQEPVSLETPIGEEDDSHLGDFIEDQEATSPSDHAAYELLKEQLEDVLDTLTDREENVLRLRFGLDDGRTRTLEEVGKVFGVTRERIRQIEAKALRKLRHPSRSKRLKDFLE

Row | Binder | binding result
1 | B1 | binds

Each binder was assayed against T1, ComA (assay: EMSA; complex at 1.2 uM or more; affinity similar to PIR; EMSA: 10 mM HEPES pH 7.6, 2 mM MgCl2, 0.1 mM EDTA, 200 mM KCl, 5 mM DTT, 10% glycerol; 10 ng DNA in 15 ul, 20 min, room temperature). Details: protein: recombinant; tags: N-terminal His6 (from expression primer); chain copies: 2; label: 5' biotin on strand 1; blunt.

Row | Binder | binding result
2 | B1 | binds

Each binder was assayed against T2, ComA;RNA polymerase alpha subunit (assay: EMSA; supershift; EMSA: 10 mM HEPES pH 7.6, 2 mM MgCl2, 0.1 mM EDTA, 200 mM KCl, 5 mM DTT, 10% glycerol; 10 ng DNA in 15 ul, 20 min, room temperature). Details: protein: recombinant;recombinant; tags: N-terminal His6 (from expression primer);N-terminal His6 (from expression primer); label: 5' biotin on strand 1; blunt.

Row | Binder | binding result
3 | B1 | binds

Each binder was assayed against T1, ComA (assay: EMSA; EMSA: 10 mM HEPES pH 7.6, 2 mM MgCl2, 0.1 mM EDTA, 200 mM KCl, 5 mM DTT, 10% glycerol; 10 ng DNA in 15 ul, 20 min, room temperature). Details: protein: recombinant; tags: N-terminal His6 (from expression primer); chain copies: 2; label: 5' biotin on strand 1; blunt.

Row | Binder | binding result
4 | B2 | no binding
5 | B3 | no binding
6 | B4 | no binding
7 | B5 | no binding
8 | B6 | no binding
9 | B7 | no binding
10 | B8 | no binding
11 | B9 | no binding
12 | B10 | no binding
13 | B11 | no binding
14 | B12 | no binding
15 | B13 | no binding
16 | B14 | binds
17 | B15 | no binding
18 | B16 | no binding
19 | B17 | no binding
20 | B18 | no binding
21 | B19 | no binding

The binders below were run against T1, ComA (assay: EMSA; complex at 1.2 uM or more; affinity similar to PDR; EMSA: 10 mM HEPES pH 7.6, 2 mM MgCl2, 0.1 mM EDTA, 200 mM KCl, 5 mM DTT, 10% glycerol; 10 ng DNA in 15 ul, 20 min, room temperature). Details: protein: recombinant; tags: N-terminal His6 (from expression primer); chain copies: 2; label: 5' biotin on strand 1; blunt.

Row | Binder | binding result
22 | B20 | binds

What follows are binders tested against T3, ComA;sigma factor sigmaA (assay: EMSA; supershift, same sigmaA concentration as PDR; EMSA: 10 mM HEPES pH 7.6, 2 mM MgCl2, 0.1 mM EDTA, 200 mM KCl, 5 mM DTT, 10% glycerol; 10 ng DNA in 15 ul, 20 min, room temperature). Details: protein: recombinant;recombinant; tags: N-terminal His6 (from expression primer);N-terminal His6 (from expression primer); chain copies: 2;1; label: 5' biotin on strand 1; blunt.

Row | Binder | binding result
23 | B20 | binds

Molecular target: T1, ComA
Assay: EMSA; EMSA: 10 mM HEPES pH 7.6, 2 mM MgCl2, 0.1 mM EDTA, 200 mM KCl, 5 mM DTT, 10% glycerol; 10 ng DNA in 15 ul, 20 min, room temperature
Details: protein: recombinant; tags: N-terminal His6 (from expression primer); chain copies: 2; label: 5' biotin on strand 1; blunt
Remark: another data set of the same source

Row | Binder | binding signal
24 | B21 | ~2 fold reduced affinity
25 | B22 | ~2 fold reduced affinity

Molecular target: T1, ComA
Assay: as above
Details: protein: recombinant; tags: N-terminal His6 (from expression primer); chain copies: 2; label: 5' biotin on strand 1; blunt
Remark: another data set of the same source

Row | Binder | binding signal
26 | B23 | ~2 fold reduced affinity

The binders below were run against T2, ComA;RNA polymerase alpha subunit (assay: EMSA; supershift, same alpha concentration as PDR; EMSA: 10 mM HEPES pH 7.6, 2 mM MgCl2, 0.1 mM EDTA, 200 mM KCl, 5 mM DTT, 10% glycerol; 10 ng DNA in 15 ul, 20 min, room temperature). Details: protein: recombinant;recombinant; tags: N-terminal His6 (from expression primer);N-terminal His6 (from expression primer); label: 5' biotin on strand 1; blunt.

Row | Binder | binding result
27 | B20 | binds
